Biological target: T1, protein A (UniProt P38507 37-477)
T1 construct: also called Protein A superantigen
Assay: phage ELISA on coated protein A; signal after 80 C 10 min then 4 C 10 min as % of the untreated sample (heat/cool assay)

B1: HEL4 VH (other)
VH: QVQLLESGGGLVQPGGSLRLSCAASGFRISDEDMGWVRQAPGKGLEWVSSIYGPSGSTYYADSVKGRFTISRDNSKNTLYLQMNSLRAEDTAVYYCASALEPLSEPLGFWGQGTLVTVSS
For B1, the “Retained binding to protein A” value was 88%.

— US20120207673A1 (GARVAN INSTITUTE OF MEDICAL RESEARCH, published 2012)
